What was measured:
Assay in all cases: IEDB peptide-MHC binding, purified MHC/competitive/radioactivity; filed as Kd, often an IC50 or EC50 that approximates it; ≥ and ≤ were set here for values at or beyond the usual limits of such assays
HLA-A*02:02 = target: HLA-A*02:02
HLA-A*02:03 = target: HLA-A*02:03
HLA-A*02:06 = target: HLA-A*02:06
HLA-A*03:01 = target: HLA-A*03:01
HLA-A*11:01 = target: HLA-A*11:01
HLA-A*31:01 = target: HLA-A*31:01
HLA-A*33:01 = target: HLA-A*33:01
HLA-A*68:01 = target: HLA-A*68:01
[1] = source organism: Vaccinia virus WR
[2] = source organism: Dengue virus 2 Jamaica/1409/1983
[3] = source organism: SARS coronavirus Tor2
[4] = source organism: Dengue virus 2 16681-PDK53
[5] = source organism: Human immunodeficiency virus type 1 BH10
[6] = source organism: Mammarenavirus juninense

Row | Sequence | Kd (HLA-A*03:01; [1]) [nM] | Kd (HLA-A*11:01; [1]) [nM] | Kd (HLA-A*31:01; [1]) [nM] | Kd (HLA-A*33:01; [1]) [nM] | Kd (HLA-A*68:01; [1]) [nM] | other results
1 | AAIDRQVSV |  |  |  |  |  | Kd (HLA-A*02:02; [1]): 933 nM; Kd (HLA-A*02:03; [1]): 18.6 nM; Kd (HLA-A*02:06; [1]): 14.9 nM
2 | AIMAVGMVSI |  |  |  |  |  | Kd (HLA-A*02:03; [2]): 58 nM
3 | AMHDKKIDI |  |  |  |  |  | Kd (HLA-A*02:02; [1]): 17200 nM; Kd (HLA-A*02:03; [1]): 1520 nM; Kd (HLA-A*02:06; [1]): ≥ 42000 nM
4 | ATLNTLITLI |  |  |  |  |  | Kd (HLA-A*02:02; [1]): 31.5 nM; Kd (HLA-A*02:03; [1]): 27.9 nM; Kd (HLA-A*02:06; [1]): 198 nM
5 | CIVQSVLRDI |  |  |  |  |  | Kd (HLA-A*02:02; [1]): 218 nM; Kd (HLA-A*02:03; [1]): 158 nM; Kd (HLA-A*02:06; [1]): 849 nM
6 | DAKRNSKSLV |  |  |  |  |  | Kd (HLA-A*02:02; [1]): 13300 nM; Kd (HLA-A*02:03; [1]): 2870 nM; Kd (HLA-A*02:06; [1]): ≥ 52100 nM
7 | DINVIGLIV |  |  |  |  |  | Kd (HLA-A*02:02; [1]): 9800 nM; Kd (HLA-A*02:03; [1]): 4050 nM; Kd (HLA-A*02:06; [1]): 5530 nM
8 | DLMSSKDDV |  |  |  |  |  | Kd (HLA-A*02:06; source organism: Homo sapiens): ≥ 132000 nM
9 | DTDIVNNFIT |  |  |  |  |  | Kd (HLA-A*02:02; [1]): 8590 nM; Kd (HLA-A*02:03; [1]): 5590 nM; Kd (HLA-A*02:06; [1]): 2310 nM
10 | FLITGVFDI |  |  |  |  |  | Kd (HLA-A*02:02; [3]): 0.686 nM; Kd (HLA-A*02:03; [3]): 0.765 nM; Kd (HLA-A*02:06; [3]): 1.48 nM
11 | GLSQRHEEKV |  |  |  |  |  | Kd (HLA-A*02:06; source organism: Homo sapiens): ≥ 53800 nM
12 | ILNPYMPSVV |  |  |  |  |  | Kd (HLA-A*02:03; source organism: Dengue virus 1 Brazil/97-11/1997): 3.26 nM
13 | KLTLKGMSYV |  |  |  |  |  | Kd (HLA-A*02:03; source organism: Dengue virus 1 Singapore/S275/1990): 53.4 nM
14 | KVSCTILAV |  |  |  |  |  | Kd (HLA-A*02:03; [4]): 57.7 nM; Kd (HLA-A*02:06; [4]): 18.2 nM
15 | LLATVTGGI |  |  |  |  |  | Kd (HLA-A*02:03; [2]): 3.59 nM
16 | LMMATIGIA |  |  |  |  |  | Kd (HLA-A*02:03; [2]): 0.49 nM
17 | NQLTYVVIAI |  |  |  |  |  | Kd (HLA-A*02:06; [2]): 23.6 nM
18 | PLPNFSSLNL |  |  |  |  |  | Kd (HLA-A*02:06; source organism: Homo sapiens): ≥ 56600 nM
19 | PLPVSRLVSL |  |  |  |  |  | Kd (HLA-A*02:03; source organism: Homo sapiens): 16700 nM
20 | SLGKAVHQV |  |  |  |  |  | Kd (HLA-A*02:03; source organism: Dengue virus 4 Philippines/H241/1956): 14.6 nM
21 | SLLNATDIAV |  |  |  |  |  | Kd (HLA-A*02:03; [5]): 530 nM; Kd (HLA-A*02:06; [5]): 16.6 nM
22 | TFIDVHIPK | 187 | 0.921 | 2.36 | 1.05 | 11.4 | 

Row | Sequence | Kd (HLA-A*03:01; [1]) [nM] | Kd (HLA-A*11:01; [1]) [nM] | Kd (HLA-A*31:01; [1]) [nM] | Kd (HLA-A*33:01; [1]) [nM] | Kd (HLA-A*68:01; [1]) [nM] | other results
23 | TIEILRNYLR | 2350 | 48.5 | 21.1 | 27.7 | 1.62 | 
24 | TIKYSNDNR | 15500 | 228 | 19.6 | 116 | 3 | 
25 | TILEYLYIMR | 8990 | 2060 | 987 | 2300 | 167 | 
26 | TIQRFSSLR | 5210 | 8.93 | 0.55 | 5.54 | 4.86 | 
27 | TISSESLVY | 21 | 10.7 | 10200 | 5450 | 619 | 
28 | TLNGIMMNER | 226 | 1330 | 108 | 1460 | 743 | 
29 | TQSVLCVKK | 1040 | 6.64 | 1010 | ≥ 67900 | 228 | 
30 | TSRTLSYYK |  |  |  |  |  | Kd (HLA-A*03:01; [3]): 450 nM; Kd (HLA-A*11:01; [3]): 160 nM; Kd (HLA-A*31:01; [3]): 179 nM; Kd (HLA-A*33:01; [3]): 2400 nM; Kd (HLA-A*68:01; [3]): 840 nM
31 | TVKPGNFNK |  |  |  |  |  | Kd (HLA-A*03:01; [3]): 81.5 nM; Kd (HLA-A*11:01; [3]): 33 nM; Kd (HLA-A*31:01; [3]): 41.6 nM; Kd (HLA-A*33:01; [3]): 1000 nM; Kd (HLA-A*68:01; [3]): 122 nM
32 | VCFHEFLSSK |  |  |  |  |  | Kd (HLA-A*03:01; [6]): 3470 nM; Kd (HLA-A*11:01; [6]): 4500 nM; Kd (HLA-A*31:01; [6]): 1530 nM; Kd (HLA-A*33:01; [6]): ≥ 70000 nM; Kd (HLA-A*68:01; [6]): 14400 nM
33 | VFCNDHKGNR | ≥ 53200 | ≥ 69800 | 428 | 1880 | 4090 | 
34 | VLPHLCLDY | 102 | 421 | 7820 | 1990 | 15000 | 
35 | VQADSGCVV |  |  |  |  |  | Kd (HLA-A*02:06; [2]): 79.6 nM
36 | VSAKQLRTR | 12700 | 2730 | 286 | 13400 | 1050 | 
37 | VTGFMEEEIK | 13300 | 7.06 | 10700 | ≥ 33900 | 1220 | 
38 | VVNARLRAK |  |  |  |  |  | Kd (HLA-A*03:01; [3]): 13.8 nM; Kd (HLA-A*11:01; [3]): 130 nM; Kd (HLA-A*31:01; [3]): 199 nM; Kd (HLA-A*33:01; [3]): ≥ 24900 nM; Kd (HLA-A*68:01; [3]): 8180 nM
39 | WLHECTDESR | ≥ 70100 | ≥ 69800 | 6230 | 254 | 273 | 
40 | WSRIGTAATK | 101 | 1070 | ≥ 28900 | ≥ 70000 | 786 | 
41 | YISRDELWAR | ≥ 25600 | 792 | 1.75 | 0.808 | 32.4 | 
42 | YIYKSGKLVK | 7.74 | 36 | 7800 | 7860 | 539 | 
43 | YMSALNHTK |  |  |  |  |  | Kd (HLA-A*03:01; [3]): 108 nM; Kd (HLA-A*11:01; [3]): 48.4 nM; Kd (HLA-A*31:01; [3]): 642 nM; Kd (HLA-A*33:01; [3]): 1120 nM; Kd (HLA-A*68:01; [3]): 3.43 nM
